Molecular target: Alexa-546-labeled H3-H4(E63C) (UniProt P61830)
Assay: other fluorescence titration

Vps75_(1−223) (Vps75 lacking the C-terminal acidic domain), sequence (P53853 1-223): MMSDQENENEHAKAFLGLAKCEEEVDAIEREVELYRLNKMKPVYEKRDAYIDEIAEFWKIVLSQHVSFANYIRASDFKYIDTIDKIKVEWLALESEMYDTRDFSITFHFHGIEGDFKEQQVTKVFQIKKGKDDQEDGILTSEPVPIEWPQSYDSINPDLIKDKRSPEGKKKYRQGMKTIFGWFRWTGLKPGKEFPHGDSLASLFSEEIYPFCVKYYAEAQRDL

## Vps75_(1−223) (Vps75 lacking the C-terminal acidic domain) (from UniProt P53853 1-223) (domain or fragment)
  Kd: 13 nM

## Rtt109 (recombinant, purified) (from UniProt Q07794 1-436) (enzyme)
  Kd: 150 nM

From publication PMC2680711
